The record followed here is patent publication US20190092871A1 (VIB VZW, published 2019).

One test addresses T1, mouse CD20 (mouse, UniProt P19437 1-291).
T1 construct: whole, on cells; also called mCD20; CHO-K1-mCD20
T1 sequence (looked up): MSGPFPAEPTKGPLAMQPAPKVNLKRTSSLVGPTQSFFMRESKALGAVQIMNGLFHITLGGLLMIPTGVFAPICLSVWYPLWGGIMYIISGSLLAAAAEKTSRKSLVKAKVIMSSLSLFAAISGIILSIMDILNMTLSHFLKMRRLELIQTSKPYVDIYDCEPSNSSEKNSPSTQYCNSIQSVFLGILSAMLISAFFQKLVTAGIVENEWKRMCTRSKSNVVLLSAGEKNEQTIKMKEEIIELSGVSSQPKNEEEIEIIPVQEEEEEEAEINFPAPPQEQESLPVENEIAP
Briefly: FACS, 5 ug/ml VHH on CHO-K1 cells stably expressing mouse CD20, FITC anti-his detection. The method, then:
(§1) To determine the binding activities of the VHHs specific for human or mouse CD20, FACS analysis was carried out. Specifically, CHO-K1 cells and CHO-K1 cells stably expressing human or mouse CD20 were incubated with 5 μg/ml of the VHHs produced in accordance with the application. A monoclonal FITC labelled anti-his antibody (Genscript #A01620) was applied as secondary stain. FACS analysis was done on a FacsCalibur flow cytometer (Becton Dickinson).
(A flow cytometer gives signals particle by particle.)

Test [1] concerns the target T2, human CD20 (human, UniProt P11836 1-297).
T2 construct: The forward primer starts at codon 2; also called hCD20; CHO-K1-hCD20
T2 sequence: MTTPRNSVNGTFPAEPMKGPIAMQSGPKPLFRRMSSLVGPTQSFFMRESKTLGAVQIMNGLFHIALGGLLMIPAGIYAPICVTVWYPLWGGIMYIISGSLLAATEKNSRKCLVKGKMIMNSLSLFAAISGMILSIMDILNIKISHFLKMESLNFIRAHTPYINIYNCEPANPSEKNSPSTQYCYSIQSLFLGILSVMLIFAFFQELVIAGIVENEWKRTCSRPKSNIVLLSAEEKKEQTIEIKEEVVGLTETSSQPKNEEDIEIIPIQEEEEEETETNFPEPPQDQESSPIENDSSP
Briefly: FACS, 5 ug/ml VHH on CHO-K1 cells stably expressing human CD20, FITC anti-his detection. The procedure:
as §1

The target in test [2] is T2, human CD20. Briefly: cell ELISA, crude periplasmic extract, CHO-K1 expressing human CD20 against parental CHO-K1.

B1: R3MCD137 (VHH)
VHH: QVQLQESGGGSVQAGGSLRLSCAASGSTFSIKAMGWYRQAPGKQRELVAAFISGRGSTKYADSVKGRFAISRDNAKNTMYLQMDSLEPEDTAVYYCYIVLPTGGGSAMDYWGEGTQVTVSS
notes: Whole entry = VHH-AAA-HA-His6 (pMECS construct)
B1: in the test with mouse CD20, the binding result was “binds”.

B2: R3MCD22 (VHH)
VHH: QVQLQESGGGVVQAGGSLRLSCAASGSTFSIKAMGWYRQAPGKQRDLVAGFISGRGSAKYADSVKGRFAISRDNAKNTMYLQMDSLKPEDTAVYYCYIVLTTGGGSAMDYWGQGTQVTVSS
notes: as for B1
B2: in the test with mouse CD20, the binding result was “binds”.

B3: 2HCD25 (VHH)
VHH: QVQLQESGGGLAQAGGSLRLSCAASGRTFSMGWFRQAPGKEREFVAAITYSGGSPYYASSVRGRFTISRDNAKNTVYLQMNSLKPEDTAVYYCAANPTYGSDWNAENWGQGTQVTVSS
notes: Whole entry = VHH-AAA-HA-His6 (pMECS construct); also called hCD20Nb
B3: in the test with human CD20 [1], the binding result was “binds”.

B4: 2HCD78 (VHH)
VHH: QVQLQESGGGLVQPGGSLRLSCAASGRTFSMGWFRQAPGKEREFVAAITYSGGSPYYASSVRGRFTISRDNAKNTVYLQMNSLKPEDTAVYYCAANPTYGSDWNAENWGQGTQVTVSS
notes: as for B1
As for B4, in the test with human CD20 [1], the binding result was “binds”.

B5: 2HCD40 (VHH)
VHH: QVQLQESGGGLVQAGGSLRLSCAASGRTVGSYSMGWFRQAPGKEREFVAAVTWSGASPYYADSVKGRFTISRDNAKNTVYLQMNSLKPEDTAVYYCAANPTYSGGWHAEYWGQGTQVTVSS
notes: as for B1
In the case of B5, the binding result in the test with human CD20 [2] is on record as “binds”.

B6: 2HCD88 (VHH)
VHH: QVQLQESGGGLVQAGDSLRLSCAASGRTVGSYSMGWFRQAPGKEREFVAAVTWSGASPYYADSVKGRFTISRDNAKNTVYLQMNSLKPEDTAVYYCAANPTYSGGWHAEYWGQGTQVTVSS
notes: as for B1
Regarding B6, the binding result in the test with human CD20 [2] was “binds”.

B7: 2HCD68 (VHH)
VHH: QVQLQESGGGLVQPGGSLRLSCAASRFTLDYYAIGWFRQAPGKEREFVAAVTWSGASPYYADSVKGRFTISRDNAKNTVYLQMNSLKPEDTAVYYCAANPTYSGGWHAEYWGQGTQVTVSS
notes: as for B1
On to B7, for which, in the test with human CD20 [2], the binding result is listed as “binds”.

B8: 2HCD59 (VHH)
VHH: QVQLQESGGGSEQPGGSLRLSCAASGRTVGSYSMGWFRQAPGKEREFVAAVTRSGASPYYADSVKGRFTISRDNAKNTVYLQMNSLKPEDTAVYYCAANPTYSGGWHAEYWGQGTQVTVSS
notes: as for B1
B8: the binding result with human CD20 [2] is reported as “binds”.

B9: 2HCD17 (VHH)
VHH: QVQLQESGGGLVQAGGSLRLSCAASGRTVGSYSMGWFRQAPGKEREFVAAVIWSGASPYYADSVKGRFTISRDNAKNTVYLQMNSLKPEDTAVYYCAANPTYSGGWHAEYWGQGTQVTVSS
notes: as for B1
In the case of B9, in the test with human CD20 [1], the binding result is reported as “binds”.

B10: 2HCD73 (VHH)
VHH: QVQLQESGGGLVQAGGSLRLSCAASGRTFSRQSMGWFRQAPGEEREFVAVITWSGGSPYYADSVRGRFTISRDNAKNTVYLQMNSLKPEDTAVYYCAAPVSYGSQWLADYWGQGTQVTVSS
notes: as for B1
On to B10, for which the binding result in the test with human CD20 [1] is “binds”.

B11: 2HCD81 (VHH)
VHH: QVQLQESGGGLVQAGGSLRLSCAASGRTFSSYNMGWFRQAPGKEREFVAVISWSGGSPYYADSVKGRFTISRDNAKNTVYLQMNSLKPEDTAVYYCAAPVSYGSSWLADYWGQGTQVTVSS
notes: as for B1
For B11, the binding result in the test with human CD20 [1] is recorded as “binds”.

B12: R3CD105 (VHH)
VHH: QVQLQESGGGLVQAGGSLRLSCAASGRTFSNYNMGWFRQAPGKEREFVAAIDWSGGSPYYAASVRGRFTISRDNAENTVYLQMNSLKPEDTAVYYCAAPLSYGSTWLADYWGQGTQVTVSS
notes: as for B1
Take B12: the binding result with human CD20 [2] is “binds”.

B13: 2HCD43 (VHH)
VHH: QVQLQESGGGLVQPGGSLRLSCTASGFTLDYYAIGWLRQAPGKEREGVSCISSSGGSTNYADSVKGRFTISRDNAKNTVYLLMNSLKPEDTAVYYCAAERTWVSNYYCSGDGDGYDYDYWGQGTQVTVSS
notes: as for B1
Regarding B13, in the test with human CD20 [2], the binding result is “binds”.
